According to patent publication US20240059799A1 (Pfizer, published 2024):

T1: recombinant human TL1A (human, UniProt O95150 71-251)
T1 construct: Homotrimeric cytokine; biotinylated with Sulfo-NHS-biotin where captured for SPR, coated unlabelled in ELISA, soluble in bioassays; also called TNFSF15
T1 chain: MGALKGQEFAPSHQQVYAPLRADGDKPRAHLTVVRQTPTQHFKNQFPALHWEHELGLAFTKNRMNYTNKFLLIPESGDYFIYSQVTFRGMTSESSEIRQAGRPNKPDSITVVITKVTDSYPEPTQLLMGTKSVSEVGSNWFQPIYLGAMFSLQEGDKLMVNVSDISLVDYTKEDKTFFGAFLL


Legend:
recombinant human TL1A [1] = target: T1, recombinant human TL1A; experiment: competition ELISA, coated TL1A, competitor bio-TL1A-0002
Method: For this competition ELISA assay procedure, 96-well high binding plates (Corning, product number 3590) were coated with 1 μg/mL recombinant TL1A in 100 μL/well in Phospate Buffered Saline (PBS) overnight at 4° C. Plates were then blocked in PBS+0.02% casein solution and washed with PBS+0.05% Tween-20 following standard ELISA protocol. […] Plates were washed with PBS+0.05% Tween-20 following standard ELISA protocol, and Streptavidin-HRP (Southern Biotech, product number 7100-05) diluted to 1:10,000 in assay buffer was added to plates and incubated for 25-30 minutes at room temperature. Next, the plates were washed with PBS+0.05% Tween-20 following standard ELISA protocol, and then TMB substrate (BioFX Laboratories, catalog number TMBW-0100-01) was added to plates. Reactions were stopped after approximately 5 minutes by adding 0.18 M ortho-phosphoric acid to each well and absorbance was read at 450 nm.

recombinant human TL1A [2] = target: T1, recombinant human TL1A; experiment: cell-based or functional assay

Binder	Bioactivity relative to TL1A-0002 (recombinant human TL1A [1])	IC50 (recombinant human TL1A [1])	TF-1 NF-κB reporter cell bioassay IC50 (recombinant human TL1A [2])	TF-1 NF-κB reporter cell bioassay, Bioactivity relative to TL1A-0002 (recombinant human TL1A [2])	Whole blood IFNγ assay IC50 (recombinant human TL1A [2])	Whole blood IFNγ assay, Bioactivity relative to TL1A-0002 (recombinant human TL1A [2])
TL1A-0261 (antibody, human IgG1, kappa, V domains shown, human IgG1 effector-function-minimized/kappa) VH: QVQLVQSGAEVKKPGASVKVSCKASGYDYTYYGISWVRQAPGQGLEWMGWISTYNTGTHYAPSLQGRVTMTTDTSTSTAYMELRSLRSDDTAVYYCARESYYGSGAHRGGMDVWGQGTTVTVSS VL: DIQMTQSPSSLSASVGDRVTITCRASQSVSSYLAWYQQKPGKAPKLLIYDASNRATGVPSRFSGSGSGTDFTLTISSLQPEDFATYYCQQRSNWPWTFGQGTKVEIKR	1.1 fold	5.6 nM	29.5 nM	0.8 fold	0.923 nM	1.1 fold
TL1A-0265 (antibody, human IgG1, kappa, V domains shown, human IgG1 effector-function-minimized/kappa) VH: QVQLVQSGAEVKKPGASVKVSCKASGYDYTYYGISWVRQAPGQGLEWMGWISTYNTVTHYAPSLQGRVTMTTDTSTSTAYMELRSLRSDDTAVYYCARESYYGSGAHRGGMDVWGQGTTVTVSS VL: DIQMTQSPSSLSASVGDRVTITCRASQSVSSYLAWYQQKPGKAPKLLIYDASNRATGVPSRFSGSGSGTDFTLTISSLQPEDFATYYCQQRSNWPWTFGQGTKVEIKR	1.7 fold	8.7 nM	45.1 nM	1.3 fold	1.01 nM	1.2 fold
TL1A-0285 (antibody, human IgG1, kappa, V domains shown, human IgG1 effector-function-minimized/kappa) VH: QVQLVQSGAEVKKPGASVKVSCKASGYDFTYYGVSWVRQAPGQGLEWMGWISTYNDNTHYAPSLQGRVTMTTDTSTSTAYMELRSLRSDDTAVYYCARESYYGSGAHRGGMDVWGQGTTVTVSS VL: DIQMTQSPSSLSASVGDRVTITCRASQSVSSYLAWYQQKPGKAPKLLIYDASNRATGVPSRFSGSGSGTDFTLTISSLQPEDFATYYCQQRSNWPWTFGQGTKVEIKR	1.7 fold	8.6 nM	–	–	0.955 nM	1.2 fold
TL1A-0264 (antibody, human IgG1, kappa, V domains shown, human IgG1 effector-function-minimized/kappa) VH: QVQLVQSGAEVKKPGASVKVSCKASGYDYTYYGISWVRQAPGQGLEWMGWISTYNTVTHYAPSLQGRVTMTTDTSTSTAYMELRSLRSDDTAVYYCARESYYGSGAFRGGMDVWGQGTTVTVSS VL: DIQMTQSPSSLSASVGDRVTITCRASQSVSSYLAWYQQKPGKAPKLLIYDASNRATGVPSRFSGSGSGTDFTLTISSLQPEDFATYYCQQRSNWPWTFGQGTKVEIKR	3.1 fold	15.8 nM	30 nM	0.9 fold	1.06 nM	1.3 fold
TL1A-0275 (antibody, human IgG1, kappa, V domains shown, human IgG1 effector-function-minimized/kappa) VH: QVQLVQSGAEVKKPGASVKVSCKASGYDFSYYGISWVRQAPGQGLEWMGWISTYNTGTHYAPSLQGRVTMTTDTSTSTAYMELRSLRSDDTAVYYCARESYYGSGAHRGGMDVWGQGTTVTVSS VL: DIQMTQSPSSLSASVGDRVTITCRASQSVSSYLAWYQQKPGKAPKLLIYDASNRATGVPSRFSGSGSGTDFTLTISSLQPEDFATYYCQQRSNWPWTFGQGTKVEIKR	1.8 fold	9 nM	24.7 nM	0.7 fold	–	–
TL1A-0280 (antibody, human IgG1, kappa, V domains shown, human IgG1 effector-function-minimized/kappa) VH: QVQLVQSGAEVKKPGASVKVSCKASGYDFSYYGISWVRQAPGQGLEWMGWISTYNTNTHYAPSLQGRVTMTTDTSTSTAYMELRSLRSDDTAVYYCARESYYGSGAFRGGMDVWGQGTTVTVSS VL: DIQMTQSPSSLSASVGDRVTITCRASQSVSSYLAWYQQKPGKAPKLLIYDASNRATGVPSRFSGSGSGTDFTLTISSLQPEDFATYYCQQRSNWPWTFGQGTKVEIKR	1.6 fold	8.2 nM	–	–	0.914 nM	1.1 fold
TL1A-0287 (antibody, human IgG1, kappa, V domains shown, human IgG1 effector-function-minimized/kappa) VH: QVQLVQSGAEVKKPGASVKVSCKASGYDFTYYGVSWVRQAPGQGLEWMGWISTYNDNTHYAQKLQGRVTMTTDTSTSTAYMELRSLRSDDTAVYYCARESYYGSGAHRGGMDVWGQGTTVTVSS VL: DIQMTQSPSSLSASVGDRVTITCRASQSVSSYLAWYQQKPGKAPKLLIYDASNRATGVPSRFSGSGSGTDFTLTISSLQPEDFATYYCQQRSNWPWTFGQGTKVEIKR	2 fold	10.1 nM	–	–	0.993 nM	1.2 fold
TL1A-0267 (antibody, human IgG1, kappa, V domains shown, human IgG1 effector-function-minimized/kappa) VH: QVQLVQSGAEVKKPGASVKVSCKASGYDYTYYGISWVRQAPGQGLEWMGWISTYNTNTHYAPSLQGRVTMTTDTSTSTAYMELRSLRSDDTAVYYCARESYYGSGAHRGGMDVWGQGTTVTVSS VL: DIQMTQSPSSLSASVGDRVTITCRASQSVSSYLAWYQQKPGKAPKLLIYDASNRATGVPSRFSGSGSGTDFTLTISSLQPEDFATYYCQQRSNWPWTFGQGTKVEIKR	1.3 fold	6.8 nM	42.2 nM	1.2 fold	0.94 nM	1.1 fold
TL1A-0278 (antibody, human IgG1, kappa, V domains shown, human IgG1 effector-function-minimized/kappa) VH: QVQLVQSGAEVKKPGASVKVSCKASGYDFSYYGISWVRQAPGQGLEWMGWISTYNTVTHYAPSLQGRVTMTTDTSTSTAYMELRSLRSDDTAVYYCARESYYGSGAFRGGMDVWGQGTTVTVSS VL: DIQMTQSPSSLSASVGDRVTITCRASQSVSSYLAWYQQKPGKAPKLLIYDASNRATGVPSRFSGSGSGTDFTLTISSLQPEDFATYYCQQRSNWPWTFGQGTKVEIKR	1.8 fold	9.1 nM	–	–	0.82 nM	1 fold
TL1A-0289 (antibody, human IgG1, kappa, V domains shown, human IgG1 effector-function-minimized/kappa) VH: QVQLVQSGAEVKKPGASVKVSCKASGYDFTYYGVSWVRQAPGQGLEWMGWISTYNTGTHYAPSLQGRVTMTTDTSTSTAYMELRSLRSDDTAVYYCARESYYGSGAHRGGMDVWGQGTTVTVSS VL: DIQMTQSPSSLSASVGDRVTITCRASQSVSSYLAWYQQKPGKAPKLLIYDASNRATGVPSRFSGSGSGTDFTLTISSLQPEDFATYYCQQRSNWPWTFGQGTKVEIKR	1.6 fold	7.9 nM	–	–	0.799 nM	1 fold
TL1A-0263 (antibody, human IgG1, kappa, V domains shown, human IgG1 effector-function-minimized/kappa) VH: QVQLVQSGAEVKKPGASVKVSCKASGYDYTYYGISWVRQAPGQGLEWMGWISTYNTGTHYAQKLQGRVTMTTDTSTSTAYMELRSLRSDDTAVYYCARESYYGSGAHRGGMDVWGQGTTVTVSS VL: DIQMTQSPSSLSASVGDRVTITCRASQSVSSYLAWYQQKPGKAPKLLIYDASNRATGVPSRFSGSGSGTDFTLTISSLQPEDFATYYCQQRSNWPWTFGQGTKVEIKR	1.2 fold	6.2 nM	40.4 nM	1.2 fold	0.932 nM	1.1 fold
TL1A-0274 (antibody, human IgG1, kappa, V domains shown, human IgG1 effector-function-minimized/kappa) VH: QVQLVQSGAEVKKPGASVKVSCKASGYDFSYYGISWVRQAPGQGLEWMGWISTYNTGTHYAPSLQGRVTMTTDTSTSTAYMELRSLRSDDTAVYYCARESYYGSGAFRGGMDVWGQGTTVTVSS VL: DIQMTQSPSSLSASVGDRVTITCRASQSVSSYLAWYQQKPGKAPKLLIYDASNRATGVPSRFSGSGSGTDFTLTISSLQPEDFATYYCQQRSNWPWTFGQGTKVEIKR	2 fold	10.1 nM	19.1 nM	0.6 fold	–	–
TL1A-0262 (antibody, human IgG1, kappa, V domains shown, human IgG1 effector-function-minimized/kappa) VH: QVQLVQSGAEVKKPGASVKVSCKASGYDYTYYGISWVRQAPGQGLEWMGWISTYNTGTHYAQKLQGRVTMTTDTSTSTAYMELRSLRSDDTAVYYCARESYYGSGAFRGGMDVWGQGTTVTVSS VL: DIQMTQSPSSLSASVGDRVTITCRASQSVSSYLAWYQQKPGKAPKLLIYDASNRATGVPSRFSGSGSGTDFTLTISSLQPEDFATYYCQQRSNWPWTFGQGTKVEIKR	1.4 fold	7.3 nM	43.9 nM	1.3 fold	1.03 nM	1.2 fold
TL1A-0288 (antibody, human IgG1, kappa, V domains shown, human IgG1 effector-function-minimized/kappa; 96 used) VH: QVQLVQSGAEVKKPGASVKVSCKASGYDFTYYGVSWVRQAPGQGLEWMGWISTYNTGTHYAPSLQGRVTMTTDTSTSTAYMELRSLRSDDTAVYYCARESYYGSGAFRGGMDVWGQGTTVTVSS VL: DIQMTQSPSSLSASVGDRVTITCRASQSVSSYLAWYQQKPGKAPKLLIYDASNRATGVPSRFSGSGSGTDFTLTISSLQPEDFATYYCQQRSNWPWTFGQGTKVEIKR	1.6 fold	8 nM	96 nM	2.8 fold	–	–
